Reference: patent publication US20250376535A1 (BEIJING STARMAB BIOMED TECHNOLOGY, published 2025)

Columns and labels:
[1] = target: T1, recombinant human OX40-Fc (human, UniProt P43489 29-214); assay: ELISA, OX40-Fc coated, VHH at 8 nM
T1 construct: also called rh-OX40-Fc; human OX40 hFC (R & D systems)
T1 sequence: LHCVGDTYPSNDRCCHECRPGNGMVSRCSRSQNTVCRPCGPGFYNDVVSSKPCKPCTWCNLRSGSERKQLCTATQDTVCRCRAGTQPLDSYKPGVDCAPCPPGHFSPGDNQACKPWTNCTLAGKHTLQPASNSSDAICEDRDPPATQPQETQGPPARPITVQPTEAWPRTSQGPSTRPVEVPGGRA
Protocol: (§1) After four times washing with PBST, the plate was incubated with detecting antibody anti-his-HRP (1:4000 dilution) 100 μl per well for one hour with shaking at 60 rpm. The plate was developed with 100 μL of TMB per well in the dark and then stopped by 50 μL of stop solution per well. […] Data was analyzed using GraphPad Prisma 9.1.

[2] = target: T1, recombinant human OX40-Fc; assay: ELISA, OX40-Fc coated, VHH at 40 nM
Protocol: as §1

[3] = target: T1, recombinant human OX40-Fc; assay: ELISA, OX40-Fc coated, VHH at 1.6 nM
Protocol: as §1

[4] = target: T1, recombinant human OX40-Fc; assay: ELISA, OX40-Fc coated, VHH at 200 nM
Protocol: as §1

[5] = target: T1, recombinant human OX40-Fc; assay: ELISA, OX40-Fc coated, VHH at 0.32 nM
Protocol: as §1

[6] = target: T1, recombinant human OX40-Fc; assay: ELISA, OX40-Fc coated, VHH at 1000 nM
Protocol: as §1

[7] = target: T1, recombinant human OX40-Fc; assay: ELISA, OX40-Fc coated, VHH at 0.064 nM
Protocol: as §1

[8] = target: T1, recombinant human OX40-Fc; assay: ELISA, OX40-Fc coated, VHH at 0.0128 nM
Protocol: as §1

[9] = target: T1, recombinant human OX40-Fc; assay: BLI, VHH-His on anti-His tips, OX40 hFc in solution;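 also: kinetics recorded at 30 °C in PBS pH 7.2, with 200 s of association followed by dissociation monitored in PBS lacking the OX40 protein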
Protocol: Bio-Layer Interferometry (BLI) kinetic binding analysis. […] Affinity measurements were performed with Gator equipped with Anti-Penta-His capture (HIS1K) biosensor tips. The assay was performed at 30° C. in 1×PBS buffer (Gibco®, PBS pH7.2). Samples were agitated at 1000 rpm. Prior to analysis, sensors were humidified for 15 min. Purified anti-OX40 VHH was tested for its binding capacity with HIS1K sensor tips. Tips were loaded using 20 μg/ml of anti-OX40 VHH. Loading proceeded for 300 s resulting in capture levels of between 1.8 and 2 nm. […] Association was initiated and monitored for 200 sec, after which tips were transferred to 1×PBS buffer without Factor protein (Gibco, PBS pH 7.2), in order to monitor dissociation. Sensor data was collected throughout the experiments, processed, and analyzed using the Gator data analysis software.

[10] = target: T2, Human CD40 antigen (recombinant, BLI) (human, UniProt P25942 21-193); assay: BLI, VHH-His on anti-His tips, human CD40 in solution;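 also: kinetics measured at 30 °C in PBS pH 7.2, association tracked for 200 s, then dissociation followed in PBS lacking CD40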
T2 construct: also called rh-CD40
T2 sequence (P25942 21-193 limits assumed): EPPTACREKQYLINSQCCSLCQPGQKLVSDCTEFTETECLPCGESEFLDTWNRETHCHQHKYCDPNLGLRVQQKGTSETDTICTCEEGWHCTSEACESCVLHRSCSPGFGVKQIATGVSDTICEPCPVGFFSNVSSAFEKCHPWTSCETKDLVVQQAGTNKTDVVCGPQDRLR
Protocol: Bio-Layer Interferometry (BLI) kinetic binding analysis. […] Affinity measurements were performed with Gator equipped with Anti-Penta-His capture (HIS1K) biosensor tips. The assay was performed at 30° C. in 1×PBS buffer (Gibco®, PBS pH7.2). Samples were agitated at 1000 rpm. Prior to analysis, sensors were humidified for 15 min. […] Sensor data was collected throughout the experiments, processed, and analyzed using the Gator data analysis software.
Briefly, purified anti-CD40 VHH was tested for its binding capacity with HIS1K sensor tips. Tips were loaded using 20 μg/ml of anti-CD40 VHH. Loading proceeded for 300 sec resulting in capture levels of between 1.8 and 2 nm. […] Association was initiated and monitored for 200 sec, after which tips were transferred to 1×PBS buffer without CD40 protein in order to monitor dissociation.

[11] = target: T3, EGFR (recombinant human, BLI antigen) (human, UniProt P00533 25-645); assay: BLI (Octet) as in Example 1
T3 construct: also called rh-EGFR; human EGFR

EGFR Fc [12] = target: T4, EGFR Fc (human, UniProt P00533 25-645); assay: ELISA, EGFR Fc coated
T4 construct: also called EGFR-hFc; recombinant human EGFR-Fc
Protocol: (§2) After four rounds of washing with PBST, the plate was incubated with detecting antibody anti-his-HRP (1:4000 dilution) 100 μl per well for one hour with shaking at 60 rpm. The plate was developed with 100 μL of TMB per well in the dark and then stopped by 50 μL of stop solution per well. […] Data was analyzed using GraphPad Prisma 9.1.

EGFR Fc [13] = target: T4, EGFR Fc; assay: ELISA, EGFR Fc coated, VHH at 2 nM
Protocol: as §2

EGFR Fc [14] = target: T4, EGFR Fc; assay: ELISA, EGFR Fc coated, VHH at 10 nM
Protocol: as §2

EGFR Fc [15] = target: T4, EGFR Fc; assay: ELISA, EGFR Fc coated, VHH at 50 nM
Protocol: as §2

EGFR Fc [16] = target: T4, EGFR Fc; assay: ELISA, EGFR Fc coated, VHH at 0.4 nM
Protocol: as §2

EGFR Fc [17] = target: T4, EGFR Fc; assay: ELISA, EGFR Fc coated, VHH at 500 nM
Protocol: as §2

EGFR Fc [18] = target: T4, EGFR Fc; assay: ELISA, EGFR Fc coated, VHH at 0.08 nM
Protocol: as §2

EGFR Fc [19] = target: T4, EGFR Fc; assay: ELISA, EGFR Fc coated, VHH at 0.016 nM
Protocol: as §2

EGFR Fc [20] = target: T4, EGFR Fc; assay: ELISA, EGFR Fc coated, VHH at 0.0032 nM
Protocol: as §2

B1: pgXX88-2 (VHH, not shown: small tags and cut ends)
VHH: EVQLVESGGGLVQPGGSLRLSCAASGFAFGDIPMMWVRQAPGKGREWVSSISADSATQSYADSVQDRFTISRDNAKNTLYLEMHILKPEDTAVYYCATTDRPPPGQGTQVTVSS
- OD450 [1]: 1.63
- OD450 [2]: 1.63
- OD450 [3]: 1.46
- OD450 [4]: 1.66
- OD450 [5]: 0.719
- OD450 [6]: 1.67
- OD450 [7]: 0.183
- OD450 [8]: 0.077
- Kd [9]: 0.485 nM
- koff [9]: 0.00023 s⁻¹
- kon [9]: 474000 M⁻¹ s⁻¹

B2: pgXX88-60 (VHH, not shown: small tags and cut ends)
VHH: EVQLVESGGGLAQPGGSLRLSCAASGFTFSNYAMGWYRQAPGKEREFVAAIDWSTNALLYGDSVKGRFTISRDNAKNTVFLQMSGLKPEDTALYYCAADRAYHTVVLGPPEGMDYWGKGTQVTVSS
- OD450 [1]: 0.668
- OD450 [2]: 0.718
- OD450 [3]: 0.641
- OD450 [4]: 0.61
- OD450 [5]: 0.596
- OD450 [6]: 0.713
- OD450 [7]: 0.284
- OD450 [8]: 0.057
- Kd [9]: < 0.001 nM
- koff [9]: 1e-06 s⁻¹
- kon [9]: 464000 M⁻¹ s⁻¹

B3: pgXX88-81 (VHH, not shown: small tags and cut ends)
VHH: EVQLVESGGGLAQPGSSLRLSCTASGTVFSILSATWFRQAPGKAHEARELVAFISSDGVSMHADSVKGRFTISRDNAKSTVYLQMDNLQPEDTAAYYCKLSNSMMGMEYWGRGTQVTVSS
- OD450 [1]: 0.772
- OD450 [2]: 0.75
- OD450 [3]: 0.743
- OD450 [4]: 0.666
- OD450 [5]: 0.617
- OD450 [6]: 0.772
- OD450 [7]: 0.262
- OD450 [8]: 0.06
- Kd [9]: < 0.001 nM
- koff [9]: 1e-06 s⁻¹
- kon [9]: 549000 M⁻¹ s⁻¹

B4: pgXX88-83 (VHH, not shown: small tags and cut ends)
VHH: EVQLVESGGGLVQTGDSLRLSCAALGGTPSTYAIGWFRQAAGKELQFVARITWNGDTWYADALPGRVAISRDNAKKTVYLQMNNLKPEDTAEYICAADVSEFRDIPNRDSRANYRYWGQGTQVTVSS
- OD450 [1]: 0.183
- OD450 [2]: 0.252
- OD450 [3]: 0.147
- OD450 [4]: 0.243
- OD450 [5]: 0.072
- OD450 [6]: 0.504
- OD450 [7]: 0.063
- OD450 [8]: 0.05
- Kd [9]: 0.0526 nM
- koff [9]: 2.42e-05 s⁻¹
- kon [9]: 460000 M⁻¹ s⁻¹

B5: pgXX88-84 (VHH, not shown: small tags and cut ends)
VHH: EVQLVESGGRLVQAGDSLKLSCTASGRTFSDYVMGWFRQVPGEGRLMVAVITPAGDTTEYADAVKGRFSISKDSAKRTVNLQMNNLKVDDTAVYYCAAGPSWIGMQFGTAEYWGQGTQVTVSS
- OD450 [1]: 0.31
- OD450 [2]: 0.324
- OD450 [3]: 0.29
- OD450 [4]: 0.296
- OD450 [5]: 0.175
- OD450 [6]: 0.34
- OD450 [7]: 0.085
- OD450 [8]: 0.057
- Kd [9]: < 0.001 nM
- koff [9]: 1e-06 s⁻¹
- kon [9]: 494000 M⁻¹ s⁻¹

B6: pgXX88-16 (VHH, not shown: small tags and cut ends)
VHH: QVQLVESGGGLVQAGESLNLSCSASGSIRNNAVAWFRQGPGNQRLRVAAITNTGTTDYADSVQGRFSIARDNAENTVTLQMNSLKPEDTAIYYCKIYTLPVPISSHDDTWGQGTQVTVSS
- OD450 [1]: 1.52
- OD450 [2]: 1.48
- OD450 [3]: 1.4
- OD450 [4]: 1.61
- OD450 [5]: 0.992
- OD450 [6]: 1.61
- OD450 [7]: 0.447
- OD450 [8]: 0.169

B7: pgXX88-19 (VHH, not shown: small tags and cut ends)
VHH: EVQLVESGGGLVQAGGSLRLSCVATGRTRSSTYIMAWFRQAPGKERDFVAAISFIGGSPVYTDSVKGRFTISRVIAENTVHLQMNDLTPEDTALYYCAATDSGPLGPSGPSKYEYWGQGTQVTVSS
- OD450 [1]: 1.54
- OD450 [2]: 1.61
- OD450 [3]: 1.38
- OD450 [4]: 1.62
- OD450 [5]: 0.717
- OD450 [6]: 1.69
- OD450 [7]: 0.282
- OD450 [8]: 0.126

B8: pgXX88-27 (VHH, not shown: small tags and cut ends)
VHH: EVQLVESGGGLVQPGGSVTLSCATSKDTFSRYHMGWFRQAAGKEREFVAAIANTGTTTDYADFVKGRFTISRDSAKNTVYLQMDSLKVEDTAMYYCVVGSQFMSYDYWGQGTQVTVSS
- OD450 [1]: 1.34
- OD450 [2]: 1.35
- OD450 [3]: 1.02
- OD450 [4]: 1.3
- OD450 [5]: 0.334
- OD450 [6]: 1.39
- OD450 [7]: 0.115
- OD450 [8]: 0.155

B9: pgXX88-5 (VHH, not shown: small tags and cut ends)
VHH: QVQLVESGGGLVQAGGSLRLSCAASGGTFSTYAMGWFRQAPGKEPQFVARITWSGYTLYTEPVQGRFAISRDNAKNTVYLQMNSLKPEDTAEYFCAADSSEFRDIPNRDSRANYRYWGQGTQVTVSS
- OD450 [1]: 0.103
- OD450 [2]: 0.242
- OD450 [3]: 0.065
- OD450 [4]: 0.543
- OD450 [5]: 0.058
- OD450 [6]: 1.09
- OD450 [7]: 0.057
- OD450 [8]: 0.057

B10: pgDD40-HZ-58 (VHH, not shown: small tags and cut ends)
VHH: QVQLVESGGGLVQPGESLTLSCVTSGFVFSNHWMYWDRQAPGKGLEWVADINLGGEMTYYSNSVKGRFTISRDNAKNTVSLRMDNLKVEDTAVYFCAANQQTPPYGLGSREYDYDYWGQGTQVTVSS
- Kd [10]: 0.0406 nM
- koff [10]: 3.32e-05 s⁻¹
- kon [10]: 818000 M⁻¹ s⁻¹

B11: pgEG1 (VHH, not shown: small tags and cut ends)
VHH: QVQLVESGGGLVQPGGSLRLSCAASGIIFEAEAMGWVRQAPGKQRESVAFIGSGGNTNVGWSVKGRFTISRDNAKNTLYLQMNSLRPEDTAVYYCNTHPLRSWGQGTQVTVS
- Kd [11]: 15.6 nM
- koff [11]: 0.00243 s⁻¹
- kon [11]: 156000 M⁻¹ s⁻¹

B12: pgEG6 (VHH, not shown: small tags and cut ends)
VHH: QVQLVESGGGLVQPGGSLRLSCVASGIIFEAEAMGWYRQAPGKQRESVAFIGSGGNTNVGWSVKGRFTISRDNAKNTVYLQMNSLKPEDTAVYYCNTHPLRSWGQGTQVTVSS
- Kd [11]: 27.9 nM
- koff [11]: 0.0136 s⁻¹
- kon [11]: 489000 M⁻¹ s⁻¹

B13: pgEG12 (VHH, not shown: small tags and cut ends)
VHH: QVQLVESGGGLVQAGGSLSLSCTASRNIFSINVMSWYRQAPGKQREFVASITREDFPYYTDSVKGRFTVTRDIANNKVHLQMNSLKLEDTAVYYCNAYYRSDNYWGQGTQVTVSS
- Kd [11]: 12.5 nM
- koff [11]: 0.00251 s⁻¹
- kon [11]: 201000 M⁻¹ s⁻¹

B14: pgEG-SX20 (VHH, not shown: small tags and cut ends)
VHH: QVQLVESGGGLVQAGGSLRLSCAGARSAFSIKPMTWYRQAPGKERELVAYFNSGGSTNYADSVKGRFTISRDNAKNTMYLQMNNLKPEDTAVYYCNAIPPLGSWGQGTQVTVSS
- EC50 (EGFR Fc [12]): 0.025 nM
- OD450 (EGFR Fc [13]): 2.61
- OD450 (EGFR Fc [14]): 2.6
- OD450 (EGFR Fc [15]): 2.67
- OD450 (EGFR Fc [16]): 2.67
- OD450 (EGFR Fc [17]): 2.53
- OD450 (EGFR Fc [18]): 1.95
- OD450 (EGFR Fc [19]): 1.13
- OD450 (EGFR Fc [20]): 0.358

B15: pgEG-SX9 (VHH, not shown: small tags and cut ends)
VHH: QVQLVESGGGLVQAGGSLRLSCAASVSGSALSNMAWYRQRPGNQRELVAHITFDNFTNYADSVKGRFTISRDNVKNTVDLQMSSLKPEDTAVYYCNARHFFGDNYWGKGTLVTVSS
- EC50 (EGFR Fc [12]): 0.0278 nM
- OD450 (EGFR Fc [13]): 2.64
- OD450 (EGFR Fc [14]): 2.4
- OD450 (EGFR Fc [15]): 2.28
- OD450 (EGFR Fc [16]): 2.4
- OD450 (EGFR Fc [17]): 2.2
- OD450 (EGFR Fc [18]): 1.84
- OD450 (EGFR Fc [19]): 0.903
- OD450 (EGFR Fc [20]): 0.237
